Source: patent US6607880

B1: ICE (caspase-1) (protein)
chain: NPAMPTSSGSEGNVKLCSLEEAQRIWKQKSAEIYPIMDKSSRTRLALIICNEEFDSIPRRTGAEVDITGMTMLLQNLGYSVDVKKNLTASDMTTELEAFAHRPEHKTSDSTFLVFMSHGIREGICGKKHSEQVPDILQLNAIFNMLNTKNCPSLKDKPKVIIIQACRGDSPGVVWFKDSVGVSGNLSLPTTEEFEDDAIKKAHIEKDFIAFCSSTPDNVSWRHPTMGSVFIGRLIEHMQEYACSCDVEEIFRKVRFSFEQPDGRAQMPTTERVTLTRCFYLFPGH
B2: FLICE (caspase-8) (protein)
chain: SESQTLDKVYQMKSKPRGYCLIINNHNFAKAREKVPKLHSIRDRNGTHLDAGALTTTFEELHFEIKPHDDCTVEQIYEILKIYQLMDHSNMDCFICCILSHGDKGIIYGTDGQEAPIYELTSQFTGLKCPSLAGKPKVFFIQACQGDNYQKGIPVETDSEEQPYLEMDLSSPQTRYIPDEADFLLGMATVNNCVSYRNPAEGTWYIQSLCQSLRERCPRGDDILTILTEVNYEVSNKDDKKNMGKQMPQPTFTLRKKLVFPSD

Target: T1, 35S-labelled transcription-translation product of p28 Bap31 cDNA
T1 chain: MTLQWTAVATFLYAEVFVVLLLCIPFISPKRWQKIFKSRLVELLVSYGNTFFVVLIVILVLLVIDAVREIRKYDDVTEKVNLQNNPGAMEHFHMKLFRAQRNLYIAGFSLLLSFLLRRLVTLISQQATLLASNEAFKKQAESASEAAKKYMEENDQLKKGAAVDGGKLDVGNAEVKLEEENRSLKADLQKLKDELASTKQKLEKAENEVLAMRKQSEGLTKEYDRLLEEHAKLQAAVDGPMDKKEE

| Protein | cleavage of 35S-labelled p28 Bap31 in vitro (SDS-PAGE) | amount of p20 cleavage product (Phosphorimager) |
| --- | --- | --- |
| B1 | ICE (caspase-1), on the other hand, generated two products (denoted “a” and “b”) whose apparent sizes in SDS gels (approximately 27 kDA and 20 kDa, respectively) |  |
| B2 |  | p28 Bap31 was more sensitive to cleavage by FLICE (caspase-8) than ICE (caspase-1) |
